Assay results as given in the supplement of paper PMC5998384.

Experiments:
HeLa Kyoto [1] = experiment: solubility in G1/S (NP-40 vs SDS abundance) (log2 ratio); higher = more soluble; conditions: cell cycle stage: G1/S
HeLa Kyoto [2] = experiment: solubility change mitosis vs G1/S (difference of NP-40 vs SDS log2 ratios) (log2 ratio difference); higher = more soluble in mitosis
HeLa Kyoto [3] = experiment: melting temperature (median over replicates), in situ; higher = more thermally stable
HeLa Kyoto [4] = experiment: thermal stability score vs G1/S (z-score of summed log2 fold changes over temperatures); higher = more thermally stable than in G1/S
[5] = cell cycle stage: early G1 (4.5 h after nocodazole release)
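Throughout, for melting temperature (median over replicates), in situ: HeLa Kyoto cells synchronized by double thymidine or nocodazole block, proteins quantified by TMT10plex mass spectrometry, three independent biological replicates.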
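Throughout, for solubility change mitosis vs G1/S (difference of NP-40 vs SDS log2 ratios): synchronized HeLa Kyoto cells (double thymidine block for G1/S, nocodazole release for mitosis), protein amounts in NP-40 versus SDS lysates quantified by mass spectrometry, three biological replicates.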
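Throughout, for solubility in G1/S (NP-40 vs SDS abundance): HeLa Kyoto cells arrested at G1/S by double thymidine block, proteins quantified by TMT10plex mass spectrometry in mild NP-40 versus SDS extracts, three biological replicates.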
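Throughout, for thermal stability score vs G1/S (z-score of summed log2 fold changes over temperatures): synchronized HeLa Kyoto cells, proteins quantified by TMT10plex mass spectrometry, three biological replicates, mitosis taken 0.5 h after nocodazole release, G1/S directly after double thymidine block.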

| Substance | solubility in G1/S (log2) (HeLa Kyoto [1]) | solubility change mitosis (log2) (HeLa Kyoto [2]) | melting temperature (HeLa Kyoto [3]; cell cycle stage: G1/S) [°C] | melting temperature (HeLa Kyoto [3]; cell cycle stage: mitosis) [°C] | thermal stability score (HeLa Kyoto [4]; [5]) | thermal stability score (HeLa Kyoto [4]; cell cycle stage: mitosis) |
| --- | --- | --- | --- | --- | --- | --- |
| MGGSASSQLDEGKCAYIRGKTEAAIKNFSPYYSRQYSVAFCNHVRTEVEQQRDLTSQFLKTKPPLAPGTILYEAELSQFSEDIKKWKERYVVVKNDYAVESYENKEAYQRGAAPKCRILPAGGKVLTSEDEYNLLSDRHFPDPLASSEKENTQPFVVLPKEFPVYLWQPFFRHGYFCFHEAADQKRFSALLSDCVRHLNHDYMKQMTFEAQAFLEAVQFFRQEKGHYGSWEMITGDEIQILSNLVMEELLPTLQTDLLPKMKGKKNDRKRTWLGLLEEAYTLVQHQVSEGLSALKEECRALTKGLEGTIRSDMDQIVNSKNYLIGKIKAMVAQPAEKSCLESVQPFLASILEELMGPVSSGFSEVRVLFEKEVNEVSQNFQTTKDSVQLKEHLDRLMNLPLHSVKMEPCYTKVNLLHERLQDLKSRFRFPHIDLVVQRTQNYMQELMENAVFTFEQLLSPHLQGEASKTAVAIEKVKLRVLKQYDYDSSTIRKKIFQEALVQITLPTVQKALASTCKPELQKYEQFIFADHTNMIHVENVYEEILHQILLDETLKVIKEAAILKKHNLFEDNMALPSESVSSLTDLKPPTGSNQASPARRASAILPGVLGSETLSNEVFQESEEEKQPEVPSSLAKGESLSLPGPSPPPDGTEQVIISRVDDPVVNPVATEDTAGLPGTCSSELEFGGTLEDEEPAQEEPEPITASGSLKALRKLLTASVEVPVDSAPVMEEDTNGESHVPQENEEEEEKEPSQAAAIHPDNCEESEVSEREAQPPCPEAHGEELGGFPEVGSPASPPASGGLTEEPLGPMEGELPGEACTLTAHEGRGGKCTEEGDASQQEGCTLGSDPICLSESQVSEEQEEMGGQSSAAQATASVNAEEIKVARIHECQWVVEDAPNPDVLLSHKDDVKEGEGGQESFPELPSEE [FAM129A] | 0.169 | -0.0907 | 50 | 49.7 | 1.18 | 2.35 |
| MSFRKVNIIILVLAVALFLLVLHHNFLSLSSLLRNEVTDSGIVGPQPIDFVPNALRHAVDGRQEEIPVVIAASEDRLGGAIAAINSIQHNTRSNVIFYIVTLNNTADHLRSWLNSDSLKSIRYKIVNFDPKLLEGKVKEDPDQGESMKPLTFARFYLPILVPSAKKAIYMDDDVIVQGDILALYNTALKPGHAAAFSEDCDSASTKVVIRGAGNQYNYIGYLDYKKERIRKLSMKASTCSFNPGVFVANLTEWKRQNITNQLEKWMKLNVEEGLYSRTLAGSITTPPLLIVFYQQHSTIDPMWNVRHLGSSAGKRYSPQFVKAAKLLHWNGHLKPWGRTASYTDVWEKWYIPDPTGKFNLIRRYTEISNIK [GLT8D1] | 0.144 | 0.024 | 53 | 53 | 3.31 | 5.82 |
| METPSQRRATRSGAQASSTPLSPTRITRLQEKEDLQELNDRLAVYIDRVRSLETENAGLRLRITESEEVVSREVSGIKAAYEAELGDARKTLDSVAKERARLQLELSKVREEFKELKARNTKKEGDLIAAQARLKDLEALLNSKEAALSTALSEKRTLEGELHDLRGQVAKLEAALGEAKKQLQDEMLRRVDAENRLQTMKEELDFQKNIYSEELRETKRRHETRLVEIDNGKQREFESRLADALQELRAQHEDQVEQYKKELEKTYSAKLDNARQSAERNSNLVGAAHEELQQSRIRIDSLSAQLSQLQKQLAAKEAKLRDLEDSLARERDTSRRLLAEKEREMAEMRARMQQQLDEYQELLDIKLALDMEIHAYRKLLEGEEERLRLSPSPTSQRSRGRASSHSSQTQGGGSVTKKRKLESTESRSSFSQHARTSGRVAVEEVDEEGKFVRLRNKSNEDQSMGNWQIKRQNGDDPLLTYRFPPKFTLKAGQVVTIWAAGAGATHSPPTDLVWKAQNTWGCGNSLRTALINSTGEEVAMRKLVRSVTVVEDDEDEDGDDLLHHHHGSHCSSSGDPAEYNLRSRTVLCGTCGQPADKASASGSGAQVGGPISSGSSASSVTVTRSYRSVGGSGGGSFGDNLVTRSYLLGNSSPRTQSPQNCSIM [LMNA] | -1.05 | 1.64 | 54.8 | 52.9 | -9.6 | -5.85 |
| MNHSERFVFIAEWYDPNASLLRRYELLFYPGDGSVEMHDVKNHRTFLKRTKYDNLHLEDLFIGNKVNVFSRQLVLIDYGDQYTARQLGSRKEKTLALIKPDAISKAGEIIEIINKAGFTITKLKMMMLSRKEALDFHVDHQSRPFFNELIQFITTGPIIAMEILRDDAICEWKRLLGPANSGVARTDASESIRALFGTDGIRNAAHGPDSFASAAREMELFFPSSGGCGPANTAKFTNCTCCIVKPHAVSEGLLGKILMAIRDAGFEISAMQMFNMDRVNVEEFYEVYKGVVTEYHDMVTEMYSGPCVAMEIQQNNATKTFREFCGPADPEIARHLRPGTLRAIFGKTKIQNAVHCTDLPEDGLLEVQYFFKILDN [NME7] | -0.32 | 0.0736 | 48.9 | 48.8 | 0.587 | 0.668 |
| MASASGAMAKHEQILVLDPPTDLKFKGPFTDVVTTNLKLRNPSDRKVCFKVKTTAPRRYCVRPNSGIIDPGSTVTVSVMLQPFDYDPNEKSKHKFMVQTIFAPPNTSDMEAVWKEAKPDELMDSKLRCVFEMPNENDKLNDMEPSKAVPLNASKQDGPMPKPHSVSLNDTETRKLMEECKRLQGEMMKLSEENRHLRDEGLRLRKVAHSDKPGSTSTASFRDNVTSPLPSLLVVIAAIFIGFFLGKFIL [VAPA] | 0.735 | 0.0815 | 54.1 | 54.5 | -1.27 | -1.24 |
| DSP | -0.687 | -0.0238 | 46.7 | 46.6 | -3.13 | 0.479 |
